Data reported in patent US5705355A, “Hirudin, pharmaceutical compositions comprising it and their use” (Transgene, S.A., priority 1984, dated 1998).
Read-outs that look alike come from different tables or passages of the source.

Legend:
[1] = heat / acid-heat treatment (70° C., pH 2.8, 15 min), antithrombin activity afterwards; format: physicochemical
Description: In order to characterize the hirudin obtained from E. coli, analysis was performed directly on culture samples after induction, which were heated to 70° C. for 15 min or heated to 70° C. after reduction of the pH to 2.8 with HCl.
In the latter case, the pH of the extract was brought back to neutral before being assayed. […] This can reflect either the degradation or the inactivation of constituents of the extract which inhibited the action of hirudin, or possibly the rather low pH and the heating stage may, in some cases, provide for a more complete reforming of the disulfide bridges which are needed for hirudin to show maximum activity. […]
When the labeled materials from non-induced PTG718 cultures and from cultures at 3 and 5 hours after induction are treated at 70° C. and at pH 2.8 for 15 min, centrifuged to remove the denatured proteins and analyzed on an SDS-polyacrylamide gel, it is clear that the bulk of the labeled E. coli proteins are removed from the sample (FIG. 9-- lanes 1 and 2). […]
Another portion, is adjusted to pH 2.8 with dilute HCl, and then heated to 70° C. for 15 minutes. […] The supernatant is neutralized by adding dilute NaOH and the antithrombin activity is then measured. After the small modifications in volume due to the acidification and neutralization are taken into account, it can be calculated that 100% of the original activity survives this acid/heat treatment. […]

thrombin [2] = target: T1, thrombin (Homo sapiens, UniProt P00734); details: cited from earlier work
thrombin [3] = target: T1, thrombin; details: first estimate; read-out: dissociation constant of the 1:1 thrombin-hirudin complex; cited from earlier work
[4] = tested on: plasmin, chymotrypsin A, trypsin, papain, pepsin, subtilopeptidase A; details: cited from earlier work
DIC = details: rat, in vivo; cited from earlier work
mice = details: cited from earlier work
rabbits = details: intravenously and subcutaneously; cited from earlier work
[5] = tested on: rats, dogs, rabbits and mice; details: in vivo, iv; cited from earlier work
[6] = in vivo; cited from earlier work

## hirudin
[1]
  resistance to heat treatment under conditions of quite low pH: resistance to heat treatment
[1]; 70° C. for 15 min, or 70° C. after reduction of the pH to 2.8
  loss in activity after heat or acid/heat treatment: no loss in activity
Thrombin [2]; after further stages of purification
  specific activity: 10,400 U/mg
Thrombin [2]; hirudin extracted from whole leeches
  specific activity: 6,500 anti-thrombin units per milligram
Thrombin [2]; purified approximately 650 times from heads of leeches
  specific activity: 8,500 units per milligram
Thrombin [2]; sulfate ester (Tyr 63) made to disappear completely
  activity relative to the initial hirudin activity: 55%
Thrombin [3]
  Kd: 0.08 nM
[4]; chymotrypsin A
  hirudin activity on digestion with chymotrypsin A: resisted
[4]; papain
  hirudin activity on digestion with papain: sensitive
[4]; pepsin
  hirudin activity on digestion with pepsin: sensitive
[4]; plasmin
  hirudin activity on digestion with plasmin: resisted
[4]; subtilopeptidase A
  hirudin activity on digestion with subtilopeptidase A: sensitive
[4]; trypsin
  hirudin activity on digestion with trypsin: resisted
DIC
  treating DIC compared with heparin: far superior to heparin
mice
  LD50: > 500,000 U/kg of body weight
  tolerated dose: up to 1 g per kg
mice; repeated injections over a period of two weeks
  sensitization reactions: do not lead to sensitization reactions
mice; same value expressed by weight
  LD50: > 60 mg/kg
rabbits
  tolerated dose: up to 10 mg/kg
[5]
  tolerance: well tolerated
[6]
  elimination: rapidly eliminated
